The results in this text go back to article PMC8531446, “Light-triggered and phosphorylation-dependent 14-3-3 association with NON-PHOTOTROPIC HYPOCOTYL 3 is required for hypocotyl phototropism” (Nature Communications, 2021).

The target in test [1] is T1, GFP:NPH3 from transgenic Arabidopsis nph3-7 (Arabidopsis thaliana, UniProt Q9FMF5 1-746, phosphoserine at 744 upon blue light irradiation (α-pS744 antibody); dephosphorylated on prolonged irradiation or re-transfer to darkness).
T1 construct: NPH3, Arabidopsis thaliana; cloned into pH7WGF2; S746 is the last residue; source: Arabidopsis nph3-7 seedlings, stably expressed (35S promoter), anti-GFP immunoprecipitate (GFP-Trap beads); not shown: GFP, N-terminal, kept
T1 sequence (looked up): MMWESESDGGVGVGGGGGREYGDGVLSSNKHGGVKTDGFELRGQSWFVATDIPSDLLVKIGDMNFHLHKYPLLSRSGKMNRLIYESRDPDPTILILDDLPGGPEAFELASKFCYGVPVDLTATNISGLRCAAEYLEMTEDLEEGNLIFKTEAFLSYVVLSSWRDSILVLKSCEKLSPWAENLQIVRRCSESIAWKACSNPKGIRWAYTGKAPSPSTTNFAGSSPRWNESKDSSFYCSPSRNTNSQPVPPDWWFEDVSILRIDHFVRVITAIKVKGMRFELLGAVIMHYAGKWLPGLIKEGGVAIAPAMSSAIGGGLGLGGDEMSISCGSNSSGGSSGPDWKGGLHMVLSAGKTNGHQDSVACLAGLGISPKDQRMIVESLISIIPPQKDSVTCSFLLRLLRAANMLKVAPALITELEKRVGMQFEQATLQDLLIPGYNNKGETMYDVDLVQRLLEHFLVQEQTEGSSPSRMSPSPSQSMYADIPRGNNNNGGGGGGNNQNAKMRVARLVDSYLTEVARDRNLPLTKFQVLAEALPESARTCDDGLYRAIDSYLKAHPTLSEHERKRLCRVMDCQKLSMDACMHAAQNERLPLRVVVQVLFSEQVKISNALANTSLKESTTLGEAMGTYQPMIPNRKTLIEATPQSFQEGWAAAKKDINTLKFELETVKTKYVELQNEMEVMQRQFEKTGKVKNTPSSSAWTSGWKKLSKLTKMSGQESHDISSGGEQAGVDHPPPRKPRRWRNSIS
The test can be described thus: far-Western, overlay or dot blot; anti-GFP immunoprecipitates from blue-light-treated N. benthamiana leaves (10 μmol m^-2 s^-1, 40 min) or Arabidopsis nph3-7 seedlings (1 μmol m^-2 s^-1) separated by SDS-PAGE, on nitrocellulose; overlaid with RGS(His)6-14-3-3 omega at 20 μg ml^-1 in 50 mM MOPS pH 6.5, 20% glycerol, 5 mM MgCl2, 2 mM DTT, overnight at 4 °C; anti-RGS(His)6 detection. The following applies: both partners purified.

For test [2], the target named is T2, GFP:NPH3 from N. benthamiana (Arabidopsis thaliana, UniProt Q9FMF5 1-746, phosphoserine at 744 upon blue light irradiation only (α-pS744 antibody)).
T2 construct: NPH3, Arabidopsis thaliana; cloned into pH7WGF2; S746 is the last residue; source: N. benthamiana leaves, transiently transformed (35S promoter), anti-GFP immunoprecipitate (GFP-Trap beads); not shown: GFP, N-terminal, kept
T2 sequence (looked up): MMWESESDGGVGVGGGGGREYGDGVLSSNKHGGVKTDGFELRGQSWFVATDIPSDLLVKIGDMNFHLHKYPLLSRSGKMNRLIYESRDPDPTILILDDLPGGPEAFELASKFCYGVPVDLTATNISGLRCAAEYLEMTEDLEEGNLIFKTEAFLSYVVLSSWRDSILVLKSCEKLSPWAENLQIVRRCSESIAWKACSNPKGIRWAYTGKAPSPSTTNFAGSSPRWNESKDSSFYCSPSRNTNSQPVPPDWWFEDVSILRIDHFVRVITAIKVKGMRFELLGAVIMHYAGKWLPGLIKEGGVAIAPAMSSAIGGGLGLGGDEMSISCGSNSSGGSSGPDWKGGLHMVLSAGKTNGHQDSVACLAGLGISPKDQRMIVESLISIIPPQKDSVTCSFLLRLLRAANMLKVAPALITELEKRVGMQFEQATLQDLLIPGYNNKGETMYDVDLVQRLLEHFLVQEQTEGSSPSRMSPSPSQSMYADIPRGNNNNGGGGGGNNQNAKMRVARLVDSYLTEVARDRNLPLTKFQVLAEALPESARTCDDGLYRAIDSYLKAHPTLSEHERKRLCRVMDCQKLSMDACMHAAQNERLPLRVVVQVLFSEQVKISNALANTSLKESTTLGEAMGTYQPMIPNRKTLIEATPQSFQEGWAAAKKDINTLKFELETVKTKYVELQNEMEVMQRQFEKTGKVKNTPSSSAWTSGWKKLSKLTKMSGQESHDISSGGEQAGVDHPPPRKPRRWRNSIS
Described as above. The following applies: both partners purified.

B1: RGS(His)6-tagged Arabidopsis 14-3-3 isoform omega (natural protein, UniProt Q01525 1-259, looked up)
chain: MASGREEFVYMAKLAEQAERYEEMVEFMEKVSAAVDGDELTVEERNLLSVAYKNVIGARRASWRIISSIEQKEESRGNDDHVTAIREYRSKIETELSGICDGILKLLDSRLIPAAASGDSKVFYLKMKGDYHRYLAEFKTGQERKDAAEHTLAAYKSAQDIANAELAPTHPIRLGLALNFSVFYYEILNSPDRACNLAKQAFDEAIAELDTLGEESYKDSTLIMQLLRDNLTLWTSDMQDDAADEIKEAAAPKPTEEQQ
notes: 14-3-3 isoform omega, Arabidopsis; cDNA in the expression vector pQE-30; also called purified recombinant 14-3-3 proteins; RGS(His)6-tagged 14-3-3; source: E. coli M15, purified (Ni2+-NTA agarose, native conditions)
In the case of B1, the binding result in test [1] and in test [2] was “binds” each time.
